This is an account of results in US20060003399A1, “High throughput actin polymerization assay” (Cytokinetics, Inc., priority 2004, published 2006).

Bounds are passed on as bounds.

Experiment in all cases: cell-based or functional assay
For assay [1], the target named is Arp2/3 complex (human) (UniProt P61158).
Assay [2] concerns the target Actin (G-actin with pyrene-actin) (chicken).
The target of assay [3] is Full length human N-WASP, TAP-tagged at the C-terminus (Myc-N-WASP-TAP) (human).
For assay [4], the target named is Full length human WASP, TAP-tagged at the C-terminus (Myc-WASP-TAP) (human).

As for “Full length human WASP, TAP-tagged at the C-terminus (Myc-WASP-TAP)”, in assay [1], the activity relative to 105 WASP (fold against 105 WASP) was determined as 20; the concentration giving maximal concentration of barbed ends (500 nM Cdc42, 2.5 nM Arp2/3, 3.5 uM actin) was determined as 3 nM; the potency relative to the VCA/WA domain (fold against VCA/WA domain) was above 70.
In assay [2], “GST tagged C. albicans FH1-FH2 domain (from UniProt Q5AL52 972-1598)” showed a lag phase of actin polymerization at 100 nM formin below 100 s and a time to saturation phase of actin polymerization at 100 nM formin of 400 s.
Consider GST-Nck2, for which, in assay [3], the Barbed ends came to 3.5 nM, the Barbed ends % of max. stood at 78% and the EC50 (usually the concentration that produces a half-maximal response) was determined as 7 nM. In assay [4], this substance returned a Barbed ends of 2.6 nM, a Barbed ends % of max. of 50% and an EC50 of 12 nM.
Take GST-tev-Cdc42 (enzyme): the EC50 in assay [3] was found to be 287 nM; in assay [4], 16 nM.
“His6 tagged C. albicans FH1-FH2 domain (from UniProt Q5AL52 972-1598)” yielded a formin concentration to observe saturation of actin polymerization in assay [2] of 300 to 500 nM.
